As a reminder, the Km is the substrate concentration at which the rate is half of its maximum. What is called kcat is the maximal rate divided by the concentration of active sites. The term kcat/Km denotes the second-order rate constant that governs catalysis at low substrate concentration.

We go through 5 molecules from patent publication US11447754B2, “In vitro methods of chemical conversion using non-stereospecific glutathione lyases” (WISCONSIN ALUMNI RESEARCH FOUNDATION, priority 2017, dated 2022).

Substrate in data set [1]: COc1cc(C(=O)[C@@H](CO)SC[C@H](NC(=O)CC[C@H](N)C(=O)O)C(=O)NCC(=O)O)ccc1O
The data set is described as follows: Kinetics of GS-HPV cleavage into HPV by NaGSTNu. The format is biochemical, Novosphingobium aromaticivorans DSM 12444. Particulars: other: GS-HPV into HPV, 8 nM enzyme, GSH, pH 8.5, 25° C. The source says: (§1) Enzyme purifications. Genes Saro_2595, E. coli yghU, E. coli yfcG, and SLG_04120 from Sphingobium sp. SYK-6 (codon-optimized for expression in E. coli) were individually cloned into plasmid pVP302K (Gall and Ralph et al. 2014) so that transcripts from the plasmids would be translated into proteins containing a His8-tag connected to the N-terminus via a tobacco etch virus (TEV) protease recognition site. Recombinant proteins were expressed in E. coli B834 (Wood 1966, Doherty et al. 1995) containing plasmid pRARE2 (Novagen, Madison, Wis.) grown for ˜24 h at 27° C. in ZYM-5052 Autoinduction Medium (Studier 2005) containing kanamycin and chloramphenicol. Recombinant proteins were purified essentially as described previously (Gall and Kim et al. 2014); see below for modifications to the procedure. After removal of His8-tags using TEV protease, recombinant proteins retained a Ser-Ala-Ile-Ala-Gly-peptide on their N-termini, derived from the linker between the protein and the TEV protease recognition site. Recombinant LigE and LigF1 from N. aromaticivorans were purified as previously described (Gall and Ralph et al. 2014).
(§2) Kinetics analysis of GS-HPV cleavage. The Reaction Buffer (RB) consisted of 25 mM Tris-HCl (pH 8.5) and 25 mM NaCl. The β(R)- and β(S)-stereoisomers of GS-HPV were separately generated by incubating racemic MPHPV (0.46 mM) in RB with 5 mM reduced glutathione (GSH) and either 38 μg/mL LigF1 or 36 μg/mL LigE, respectively, for several h. This sample, containing a single GS-HPV stereoisomer, guaiacol, and the unreacted MPHPV stereoisomer, was diluted with RB to achieve the desired concentration of GS-HPV for the time course reaction (0.005, 0.011, 0.022, 0.096, or 0.193 mM). An additional 5 mM GSH (dissolved in RB) was added prior to initiation of each time course. At time zero, 100 μL of the indicated enzyme sample (resuspended in RB) was combined with 1800 μL of the diluted GS-HPV reaction mixture to achieve final concentrations of 8 nM NaGSTNu, 195 nM ecYghU, 195 nM ecYfcG, or 47 nM (for β(R)-GS-HPV reactions) or 18 nM (for β(S)-GS-HPV reactions) SYK6GSTNu. Assays were performed at 25° C., and at specified time points, 300 μL of the reaction was removed and combined with 100 μL 1 M HCl (Acros Organics; Geel, Belgium) to stop the reaction before HPLC analysis to quantify HPV formed.
(§3) HPLC analysis. After extracellular aromatics were identified using LC-MS, routine analysis and quantification of aromatics were performed using an Ultra AQ C18 5 μm column (Restek, Bellefonte, Pa.) attached to a System Gold HPLC (Beckman Coulter, Brea, Calif.) with running buffers and chromatography conditions described in FIG. 14. The eluent was analyzed for light absorbance between 191 and 600 nm, and absorbances at 280 nm were used for quantification of aromatic metabolites by comparing peak areas to those of standards (retention times of measured metabolites are shown in FIG. 15).

Substrate in data set [2]: COc1cc(C(=O)[C@H](CO)SC[C@H](NC(=O)CC[C@H](N)C(=O)O)C(=O)NCC(=O)O)ccc1O
The data set is described as follows: Kinetics of GS-HPV cleavage into HPV by NaGSTNu. Type of data set: biochemical, Novosphingobium aromaticivorans DSM 12444. The note with it: other: GS-HPV into HPV, 8 nM enzyme, GSH, pH 8.5, 25° C.
From the text: as §1, §2, §3

Substrate in data set [3]: COc1cc(C(=O)[C@@H](CO)Oc2ccccc2OC)ccc1O
The data set is described as follows: Kinetics of the enzymatic cleavage of β(R)-MPHPV by BaeA (2:S14A/3:S15A). Type of data set: biochemical, Novosphingobium aromaticivorans. The note with it: other: β(R)-MPHPV into GS-HPV, 24 nM dimeric enzyme, 5 mM GSH, pH 8.0, 25° C. On the procedure: To generate mutant […], pVP302K/2873-H2872(S14A) was amplified by kinase phosphorylated primers “Saro2873-S15A_R” and “Saro2873-S15A_F”. The linear fragment was circularized using T4 DNA ligase to generate plasmid pVP302K/2873(S15A)-H2872(S14A).
Expression and purification of recombinant enzymes. Recombinant proteins were expressed using the plasmids described above in E. coli B834 containing plasmid pRARE2 (Novagen) grown for ˜25 hours at 25° C. in ZYM-5052 Autoinduction Medium containing kanamycin and chloramphenicol. Recombinant proteins were purified using a Ni^2+-NTA column as described in Example 1 above, except using gravity-flow columns instead of an FPLC system. After removal of His8-tags using Tev protease, recombinant proteins retained a Ser-Ala-Ile-Ala-Gly-peptide on their N-termini, derived from the linker between the protein and the Tev protease recognition site. Recombinant LigF1 was purified as previously described (Gall and Ralph et al. 2014).
Kinetics of the enzymatic cleavage of β(R)-MPHPV. Various concentrations of racemic MPHPV (equal amounts of the β(S)- and β(R)-stereoisomers) were combined with 5 mM GSH in RB. At time zero, 100 μL of a given enzyme in RB+5 mM GSH was combined with 1000 μL of the racemic MPHPV/GSH sample at 25° C. (both samples were equilibrated to 25° C. before mixing). Final concentrations of β(R)-MPHPV in each reaction were 0.0045, 0.010, 0.017, 0.068, or 0.13 mM. […] At specified time points, 200 μL of a reaction was removed and combined with 40 μL of 1 M HCl (Acros Organics) to stop the reaction before HPLC analysis to quantify GS-HPV formed. […]
HPLC analysis. Analysis and quantification of aromatic compounds were performed using an Ultra AQ C18 5 μm column (Restek) attached to a System Gold HPLC (Beckman Coulter) with running buffers and methods described in Example 1. The eluent was analyzed for light absorbance between 191 and 600 nm, and absorbances at 280 nm were used for quantification of aromatic metabolites by comparing peak areas to those of standards.

Substrate in data set [4]: COc1cc(C(=O)[C@@H](CO)SC[C@H](NC(=O)CC[C@H](N)C(=O)O)C(=O)NCC(=O)O)ccc1O
The data set is described as follows: Kinetics of GS-HPV cleavage into HPV by ecYfcG. Type of data set: biochemical, Escherichia coli DH5α. Particulars: other: GS-HPV into HPV, 195 nM enzyme, GSH, pH 8.5, 25° C.
From the text: as §1, §2, §3

Substrate in data set [5]: COc1cc(C(=O)[C@H](CO)SC[C@H](NC(=O)CC[C@H](N)C(=O)O)C(=O)NCC(=O)O)ccc1O
The data set is described as follows: Kinetics of GS-HPV cleavage into HPV by ecYfcG. Particulars: other: GS-HPV into HPV, 195 nM enzyme, GSH, pH 8.5, 25° C. The format is biochemical, Escherichia coli DH5α.
From the text: as §1, §2, §3

Data set [6] can be described thus: Kinetics of GS-HPV cleavage, comparisons between enzymes over both stereoisomers. Type of data set: biochemical. On the procedure: as §2, §3
Substrate in data set [7]: COc1cc(C(=O)[C@@H](CO)SC[C@H](NC(=O)CC[C@H](N)C(=O)O)C(=O)NCC(=O)O)ccc1O
The data set can be described thus: Kinetics of GS-HPV cleavage into HPV by ecYghU. Particulars: other: GS-HPV into HPV, 195 nM enzyme, GSH, pH 8.5, 25° C. Type of data set: biochemical, Escherichia coli DH5α.
From the text: as §1, §2, §3

Substrate in data set [8]: COc1cc(C(=O)[C@H](CO)SC[C@H](NC(=O)CC[C@H](N)C(=O)O)C(=O)NCC(=O)O)ccc1O
The data set can be described thus: Kinetics of GS-HPV cleavage into HPV by ecYghU. The format is biochemical, Escherichia coli DH5α. The note with it: other: GS-HPV into HPV, 195 nM enzyme, GSH, pH 8.5, 25° C.
From the text: as §1, §2, §3

B1: Novosphingobium aromaticivorans DSM 12444 NaGSTNu (Saro_2595), Nu-class glutathione-S-transferase, wild type, SEQ ID NO:18; recombinant, residues 21-313 of SEQ … (protein)
chain: MSSEYVPPKVWKWDKANGGAFASVNRPVAGPTSERELPVGKHPFQVYSLGTPNGQKATIMLEELLQLGFSEAEYDAWLIKIFEGDQFTSGFVDINPNSKIPAMVDRSGPEPFRVFESGAILMHLAEKFGVFLPTSGPARAECLSWLFWQVGSAPFIGGGFGHFYNYAPIKIEYAIDRYAMETKRLFDVANRRLAESRYLAGDEYTIADLATYTWFGNIYRGEAYGEAATFLSMHEYEHVGRWVGEIDARPGVLRGRLVNSSKGLAERHDASDFDALPPESLQAIVKGF
notes: E. coli B834
As to B1, in data set [1], the Km worked out at 40 µM, the kcat was 80 s⁻¹ and the kcat/Km stood at 1.9e+06 M⁻¹ s⁻¹. In data set [2], the Km was found to be 8 µM, the kcat came to 57 s⁻¹ and the kcat/Km came to 8e+06 M⁻¹ s⁻¹.

B2: Novosphingobium aromaticivorans BaeA (Saro_2872/Saro_2873 heterodimer, SEQ ID NO:40/SEQ ID NO:42) variant 2:S14A/3:S15A (Ser14 of Saro_2872 and Ser15 of … (protein)
chain 1: MSALLYHGEPNGAALTVLAALAETGLDIECRRIDLLAGERHSLPGIVDPVALDLSIEGEGPVLVIDGEAMTESVFLAQYLDEAAGGVGLQPTDAYARWEMMMWCRQITERLSPAAALLGNLATSQSAIAAIPAEDFAILAARIVSDDLRERWQALNDDAVNAAQVADSETKVAAAVDRCEKQLGDGREWLMGTFSIADLVTYSWLAGMEPLRPAAFADAPLVKAWLARTAARPCVQAALARATISEPLRAWAPGPEINRWG
chain 2: MDEVSLYHWEPNANAGKPMLALMEKGVPFSSHYIDMLQFDQHKPEYLAINPQGTIPAMTHNGQVLTESTAIMEYVNDRFDGPDLMPADAQDRWRVRWWMKFMDQWLGPSFSMIGWSVFVGPMVRQRDPAELAAAIDRIPLPERRTAWRKAINGDFSESEMAESRRRVGLGIAKLEEELGKRPYVGSNQYSLADINIFNSTYSLPISQPDLAGKDRTPNIMRWLKRVYTREAVKKTWAMGKTDLAHRYGLIMAEIEG
notes: His8 tag removed by TEV
Turning to B2, in data set [3], the Km came to 120 ± 30 µM, the kcat was 2.8 ± 0.5 s⁻¹ and the kcat/Km was determined as 23000 ± 8000 M⁻¹ s⁻¹.

B3: Escherichia coli ecYfcG, Nu-class glutathione-S-transferase, wild type, SEQ ID NO:30 (Escherichia coli K-12) (protein)
chain: MIDLYFAPTPNGHKITLFLEEAELDYRLIKVDLGKGGQFRPEFLRISPNNKIPAIVDHSPADGGEPLSLFESGAILLYLAEKTGLFLSHETRERAATLQWLFWQVGGLGPMLGQNHHFNHAAPQTIPYAIERYQVETQRLYHVLNKRLENSPWLGGENYSIADIACWPWVNAWTRQRIDLAMYPAVKNWHERIRSRPATGQALLKAQLGDERSDS
notes: E. coli B834
For B3, in data set [4], the Km is 160 µM, the kcat is 0.04 s⁻¹ and the kcat/Km stood at 200 M⁻¹ s⁻¹. Also, in data set [5], the Km came to 130 µM, the kcat worked out at 0.017 s⁻¹ and the kcat/Km was 140 M⁻¹ s⁻¹.

B4: ecYfcG: Nu-class GST from Escherichia coli DH5a, SEQ ID NO:30 (protein, listed as Escherichia coli)
chain: B3 chain
B4: in data set [6], the “KM, fold higher than those of ecYghU” value is recorded as approximately 10 fold; the “kcat, fold lower than those of ecYghU” value was approximately 10 fold; the “kcat/KM with GS-HPV, fold lower than for ecYghU” value is reported as approximately 100 fold; the “kcat/KM with GS-HPV, fold lower than those of NaGSTNu” value is ~10^4 fold.

B5: Escherichia coli ecYghU, Nu-class glutathione-S-transferase, wild type, SEQ ID NO:26; recombinant, residues 21-313 of SEQ ID NO:28 (Escherichia coli K-12) (protein)
chain: MTDNTYQPAKVWTWDKSAGGAFANINRPVSGPTHEKTLPVGKHPLQLYSLGTPNGQKVTIMLEELLALGVTGAEYDAWLIRIGDGDQFSSGFVEVNPNSKIPALRDHTHNPPIRVFESGSILLYLAEKFGYFLPQDLAKRTETMNWLFWLQGAAPFLGGGFGHFYHYAPVKIEYAINRFTMEAKRLLDVLDKQLAQHKFVAGDEYTIADMAIWPWFGNVVLGGVYDAAEFLDAGSYKHVQRWAKEVGERPAVKRGRIVNRTNGPLNEQLHERHDASDFETNTEDKRQG
notes: E. coli B834
Take B5: the “kcat/KM with GS-HPV, fold lower than those of NaGSTNu” value in data set [6] is approximately 100 fold. In addition, in data set [7], the Michaelis-Menten constant (Km) is 28 µM, the kcat amounted to 0.43 s⁻¹ and the kcat/Km is 16000 M⁻¹ s⁻¹. Also, in data set [8], the Michaelis constant (Km) is 12 µM, the kcat turned out to be 0.29 s⁻¹ and the kcat/Km amounted to 24000 M⁻¹ s⁻¹.
